Source: patent publication US7572589B2, “Diagnosis and treatment of infectious diseases through indel-differentiated proteins” (priority 2001, dated 2009)

Columns and labels:
[1] = target: T1, SHP-1 (Homo sapiens, UniProt P29350); details: cited from earlier work
T1 construct: made in house

[2] = system: Macrophages infected with L. donovani; details: cells incubated with inhibitor prior to infection; cited from earlier work
[3] = target: T1, SHP-1; assay: Binding assay of purified EF-1α with GST-SHP-1 glutathione beads, immunoblot; details: purified proteins, glutathione-sepharose beads
Procedure: (§1) For binding assays, purified EF-1α from either leishmania or macrophages was incubated with 25 μl (packed volume) of glutathione-agarose beads containing equal amounts of GST-SHP-1. Binding was accomplished by mixing in 100 μl of binding buffer (50 mM HEPES [pH 7.5], 0.15 M NaCl, 1 mM EDTA, 1 mM DTT, 0.01% Triton X-100™ and 1% glycerol) for 2 h at 4° C. The beads were collected by centrifugation and washed four times with binding buffer. Bound EF-1α was eluted by boiling beads in Laemmli sample buffer, separated on SDS-PAGE followed by immunoblotting using anti-EF-1α. Binding of EF-1α to calmodulin-agarose was performed essentially as described above for GST-SHP-1 except that binding buffer contained 0.2 mM CaCl2 instead of EDTA. Also, after incubation, non-bound proteins were removed and affinity beads were assayed for SHP-1 phosphatase activity using pNPP as a substrate. Relative phosphatase activity was assessed by measuring changes in absorbance at 405 nm.

[4] = target: T2, calmodulin (Homo sapiens, UniProt P0DP23); assay: Binding of purified EF-1α to calmodulin-agarose; details: purified proteins
T2 construct: purchased Sigma Chemical Co. (St. Louis, Mo.)
Procedure: as §1

[5] = target: T3, SHP-1 (Mus musculus, UniProt P29351); assay: SHP-1 phosphatase activity (pNPP) after Profect-1 delivery of purified EF-1α into macrophages; format: cell-based, murine; details: purified protein introduced into macrophages
T3 construct: complexes for delivery to macrophages (approximately 2×10^6); endogenous in cells; host or cells: macrophages (RAW 264.7 named in the materials)
Procedure: Approximately 1 μg of purified EF-1α from leishmania or macrophages or an equivalent amount of BSA were incubated separately with Profect 1™ reagent (Targety Systems, Santee, Calif., USA) in serum free media to prepare protein-Profect-1™ complexes for delivery to macrophages (approximately 2×10^6) according to the manufacturer's instructions. After 2-3 hr of incubation, cells were lysed in buffer C (50 mM Tris [pH 7.5], 1% Triton X-100™ and 0.15M NaCl) containing a cocktail of protease inhibitors for 20 min on ice and incubated with anti-SHP-1 for 2 h end-over-end at 4° C. Immune complexes were recovered using protein A-sepharose and after extensive washing with buffer C, immune complexes were assayed for phosphatase activity using pNPP as a substrate.

T1 sequence (P29350 whole entry): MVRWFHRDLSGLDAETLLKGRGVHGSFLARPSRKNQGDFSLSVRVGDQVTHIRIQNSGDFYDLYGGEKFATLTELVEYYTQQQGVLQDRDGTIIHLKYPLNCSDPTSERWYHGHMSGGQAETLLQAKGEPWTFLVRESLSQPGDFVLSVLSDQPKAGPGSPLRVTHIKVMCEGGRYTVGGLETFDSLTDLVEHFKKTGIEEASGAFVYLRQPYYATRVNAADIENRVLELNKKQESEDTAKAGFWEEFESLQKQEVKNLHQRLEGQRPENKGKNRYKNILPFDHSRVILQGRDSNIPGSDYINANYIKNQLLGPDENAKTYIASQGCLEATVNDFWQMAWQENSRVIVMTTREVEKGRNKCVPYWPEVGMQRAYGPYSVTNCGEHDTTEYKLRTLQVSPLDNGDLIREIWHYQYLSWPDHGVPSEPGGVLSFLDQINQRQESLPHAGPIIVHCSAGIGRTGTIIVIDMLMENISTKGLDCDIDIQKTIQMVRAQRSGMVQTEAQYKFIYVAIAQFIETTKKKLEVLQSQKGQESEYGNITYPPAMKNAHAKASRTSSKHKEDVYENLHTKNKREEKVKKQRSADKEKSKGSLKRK
T3 sequence (P29351 whole entry): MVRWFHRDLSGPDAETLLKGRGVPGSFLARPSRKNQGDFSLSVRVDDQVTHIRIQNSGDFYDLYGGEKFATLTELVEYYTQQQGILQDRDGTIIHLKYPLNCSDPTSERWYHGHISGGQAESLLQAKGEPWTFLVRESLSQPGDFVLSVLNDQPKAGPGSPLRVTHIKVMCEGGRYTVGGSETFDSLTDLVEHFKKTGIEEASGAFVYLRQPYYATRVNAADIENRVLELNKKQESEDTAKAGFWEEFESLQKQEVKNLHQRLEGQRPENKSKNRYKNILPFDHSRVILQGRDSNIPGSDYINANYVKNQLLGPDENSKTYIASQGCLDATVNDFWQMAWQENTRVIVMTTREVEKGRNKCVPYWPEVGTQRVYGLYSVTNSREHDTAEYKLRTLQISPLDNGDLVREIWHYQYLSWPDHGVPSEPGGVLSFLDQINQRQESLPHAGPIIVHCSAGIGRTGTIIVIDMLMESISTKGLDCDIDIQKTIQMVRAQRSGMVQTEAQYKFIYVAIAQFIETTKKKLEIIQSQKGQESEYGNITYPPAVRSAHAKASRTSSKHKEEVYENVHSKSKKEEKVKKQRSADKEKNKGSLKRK

## O.O.O.O.O.O.O.O.O.O=C([O-])[C@@H]1[O][Sb]2([O-])([O][Sb]34([OH])[O][C@H]([C@H](O)CO)[C@H]([O]3)[C@H](C(=O)[O-])[O]4)[O][C@H]([C@H](O)CO)[C@@H]1[O]2.[Na+].[Na+].[Na+] [sodium stibogluconate]
[1]
  inhibition of SHP-1: inhibitor of SHP-1

## sodium orthovandate
[2]
  phenotype of impaired cell signaling and cell deactivation: reversed

B1: macrophage EF-1α: EF-1α purified to near homogeneity from murine macrophages (RAW 264.7) (protein)
chain: GKEKTHINIVVIGHVDSGKSTTTGHLIYKCGGIDKRTIEKFEKEAAEMGKGSFKYAWVLDKLKAERERGITIDISLWKFETSKYYVTIIDAPGHRDFIKNMITGTSQADCAVLIVAAGVGEFEAGISKNGQTREHALLAYTLGVKQLIVGVNKMDSTEPPYSQKRYEEIVKEVSTYIKKIGYNPDTVAFVPISGWNGDNMLEPSANMPWFKGWKVTRKDGSASGTTLLEALDCILPPTRPTDKPLRLPLQDVYKIGGIGTVPVGRVETGVLKPGMVVTFAPVNVTTEVKSVEMHHEALSEALPGDNVGFNVKNVSVKDVRRGNVAGDSKNDPPMEAAGFTAQVIILNHPGQISAGYAPVLDCHTAHIACKFAELKEKIDRRSGKKLEDGPKFLKSGDAAIVDMVPGKPMCVESFSDYPPLGRFAVRDMRQTVAVGVIKAVDKKAAGAGKVTKSAQKAQKAK
[3]
  binding to GST-SHP-1: comparatively little binding
[4]
  binding to calmodulin: bound directly and with similar affinities
[5]
  activation of SHP-1: activation of SHP-1 was not observed
